Reference: US20170158753A1 (INTEGRATED BIOTHERAPEUTICS, published 2017)

Columns and labels:
EBOV GP[change] [1] = target: T1, EBOV GP[change] (Ebola virus, UniProt Q05320)
MARV GP[change] = MARV GP[change] (Marburg virus, UniProt P35253)
EBOV GP[change] [2] = target: T1, EBOV GP[change]; remark: listed apart in the source

B1: m5E4 (antibody, V domains shown)
VH: EVQLQESGGDLVKPGGSLKLSCAASGFTFSSYTMSWVRQTPERRLEWVATITSGGTYTYYPDSVKGRFTISRDNAKNTLYLQMTSLKSEDTAMYYCTREDGYYFSYWGQGTLVTVSA
VL: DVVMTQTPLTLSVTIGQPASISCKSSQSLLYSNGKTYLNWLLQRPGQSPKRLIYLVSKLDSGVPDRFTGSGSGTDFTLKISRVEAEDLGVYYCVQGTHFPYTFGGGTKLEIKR
Kd (EBOV GP[change] [1]): 12 nM | Kd (MARV GP[change]): 30 nM

B2: m2E4 (antibody, V domains shown)
VH: EVQLQESGPELVKPGASVKISCKASGYSFTGYYMNWVKQSPEKSLEWIGEINPSTGGTTYNQKFKAKATLTVDKSSSTAYMQLKSLTSEDSAVYYCVRYSHYYGSGSWYFDVWGTGTTVTVSS
VL: DIQMTQSPASLSASVGETVTITCRASENIYSNLAWYQQKQGKSPQLLVNAATNLADGVPSRFSGSGSGTQFSLKINSLQPEDFGSYYCQHFYVTPYTFGSGTKLEIKR
EC50 (EBOV GP[change] [2]): 1.27 µg/mL
